What was measured:
[1] = tested on: IgE+ mMCP-1+ mast cells; assay: Localization of gavaged HRF inhibitors in jejunum by confocal microscopy; assay type: in vivo, mouse; settings: using anti-His tag, data not shown
Procedure: HRF multimers in the jejunum of non-sensitized/OVA challenged (Cont, n=6) or OVA-sensitized/OVA-challenged (OVA, n=5) mice were quantified by a newly developed ELISA (FIG. 3A, FIG. 3C). HRF was also measured by ELISA (FIG. 3B). HRF dimer and monomer were quantified by western blotting in control (Cont) and food allergic mice treated without (OVA) or with GST (GST) or GST-N19 (N19) (n=5 for each group) (FIG. 3D). Allergic diarrhea was induced by 6 challenges. On the day of 7th challenge, the mice were gavaged with 0.1 mg of GST or GST-N19 (FIG. 3E). One hour later, mice were sacrificed without OVA challenge. Jejunum tissues were stained for GST, IgE, and mMCP-1 before confocal microscopy (n=5 for GST and n=6 for GST-N19). Arrows indicate cells positive for GST or GST-N19 as well as IgE and mMCP-1. […] Bars=50 μm.
Jejunum biopsy was fixed in 4% paraformaldehyde at 4° C., washed in 10-20% sucrose in phosphate buffered saline, and embedded in O.C.T. compound (Sakura Finetek, Japan). Cyrosections were made in 6 μm and blocked with 2% skim milk. Immunostaining was performed with anti-HRF (rabbit polyclonal FL-172), anti-GST (rabbit polyclonal Z-5) (Santa Cruz Biotechnology), anti-IgE (clone RME-1 from Biolegend and clone R35-72 from BD Biosciences), anti-mMCP1 (Catalog #AF5146, R&D Systems), anti-CD45 (clone 30-F11), anti-CD63 (clone NVG-2) (Biolegend), and anti-Siglec F (clone E50-2440, BD Biosciences) as primary antibodies, and anti-Rabbit Alexa Fluor 647 (Catalog #A21245), anti-Rat Alexa Fluor 568 (Catalog #A11077), and anti-Sheep Alexa Fluor 555 (Catalog #A11015) (Thermo Fisher Scientific) as secondary antibodies. Coverslips were mounted with Prolong Gold with DAPI (Thermo Fisher Scientific) and fluorescence was observed under Leica TCS SP2 confocal microscopy (Leica) and Nuance Multi spectral Imaging System (PerkinElmer).
Applicant next tested whether HRF inhibitors target mucosal mast cells. To this end, mice with allergic diarrhea were i.g. gavaged with GST-N19 or GST, and their location was identified 1 h after their gavage.

[2] = target: IgE on mucosal (IgE+ mMCP-1+, c-Kit+) mast cells of the small intestine of OVA-sensitized/OVA-challenged mice (mouse); assay: confocal microscopy of jejunum, anti-His tag staining (data not shown)
[3] = tested on: OVA-induced food allergy (allergic diarrhea); assay: Therapeutic i.v. treatment with HRF inhibitor after allergic diarrhea is established; assay type: in vivo, mouse; settings: i.v. 30 μg twice
Procedure: FIGS. 5A-5F show therapeutic treatment with HRF inhibitor ameliorates the severity of food allergy. Mice were sensitized and i.g. challenged with OVA. By the seventh OVA challenge, all the mice suffered diarrhea. These mice were pretreated i.v. with 30 μg of HRF-2CA (2CA) or PBS (OVA) before challenged with OVA two more times. (FIG. 5A) Procedure scheme. (FIG. 5B) Diarrhea severity (n=11 for OVA, n=13 for HRF-2CA and n=4 for non-sensitized control (not shown); pooled data of two independent experiments). ***: p<0.001 by two-way ANOVA. (FIG. 5C) Total and OVA-specific IgE and IgG1 concentration in sera were measured by ELISA. (FIG. 5D) mMCP-1 in sera was measured by ELISA. (FIG. 5E) Sections of jejunum were stained with chloroacetate esterase. (FIG. 5C—FIG. 5E) *, **, ***: p<0.05, p<0.01, p<0.001 by Student's t-test. (FIG. 5F) Similar i.v. therapeutic treatment of allergic mice was conducted with 30 μg of synthetic N19 peptide (n=12 for OVA and n=12 for pepN19; pooled data of two independent experiments). […] by two-way ANOVA.
Mice were i.p. sensitized with OVA (50 μg/mouse) plus alum on days 0 and 14. From day 28, mice were i.g. challenged with OVA (25 or 50 mg) or PBS (control) three times a week. Before each challenge, mice were starved for 3 h, then i.g. pretreated with GST, GST-N19 (100 μg/mouse), synthetic N19 peptide, or HRF-2CA. The development of diarrhea was monitored for 90 min after OVA challenge. Diarrhea severity (30) was based on states of stool: solid (score 0), funicular (score 1), slurry (score 2), and watery (score 3).
Applicant next tested whether HRF inhibitors modulate food allergy after diarrhea has begun. […] One cohort of mice was intravenously (i.v.) treated twice with PBS followed by OVA challenge, and the other were i.v. treated twice with 30 μg of HRF-2CA followed by OVA challenge (FIG. 5A).

[4] = tested on: OVA-induced allergic diarrhea; assay: Food allergy experiments in WT and FceRIa-/-, FcgRIIB-/-, Enpp3-/- mice; assay type: in vivo, mouse; settings: WT and mutant mice, via FcεRI
Description: FIGS. 10A-10C show HRF-2CA suppresses allergic diarrhea via FcεRI. WT and mutant mice were subjected to food allergy experiments as described in the FIG. 1 legend. FceRIa^−/− (n=4-5 each for group with sensitization and n=3 each for unsensitized group (Cont; no diarrhea was observed))(FIG. 10A), FcgRIIB^−/− (n=9-10 each for groups with sensitization and n=4-5 each for unsensitized groups (Cont; no diarrhea was observed); pooled data of two independent experiments) (FIG. 10B), and Enpp3^−/− (n=9-10 each for groups with sensitization and n=7 each for unsensitized groups (Cont; no diarrhea was observed); pooled data of two independent experiments) (FIG. 10C) mice along with WT mice were used. *, ***: p<0.05, p<0.001 by Student's t-test.
BALB/c mice were bred in the animal facility of RIKEN IMS. Frozen zygotes of FceRIa^−/− mice were donated by Takashi Saito (RIKEN IMS) and bred at RIKEN IMS. FcgRIIB^−/− mice provided by Toshiyuki Takai (Tohoku University) were also bred at RIKEN IMS. Food allergy experiments with Enpp3^−/− mice were conducted at Osaka University. All genetically modified mice were backcrossed to BALB/c background for more than ten generations.
Mice were i.p. sensitized with OVA (50 μg/mouse) plus alum on days 0 and 14. […] The development of diarrhea was monitored for 90 min after OVA challenge. […]

B1: HRF-2CA-His6, a monomeric mutant of mouse HRF (protein)
chain: MIIYRDLISHDELFSDIYKIREIADGLALEVEGKMVSRTEGAIDDSLIGGNASAEGPEGEGTESTVVTGVDIVMNHHLQETSFTKEAYKKYIKDYMKSLKGKLEEQKPERVKPFMTGAAEQIKHILANFNNYQFFIGENMNPDGMVALLDYREDGVTPFMIFFKDGLEMEKAHHHHHH
In the case of B1, the “IgE+ mMCP-1+ mast cells targeted by the His-tagged substance” value [1] is reported as 64.0±2.69%, the percent of IgE+ mMCP-1+ mast cells targeted [2] is reported as 64% and the “clinical scores (diarrhea severity, severity of food allergy)” value ([3]; after diarrhea by the 7th OVA challenge) is reported as “significantly reduced”. The mucosal mast cells ([3]; therapeutic) was “did not reduce”, the “serum mMCP-1 levels” value ([3]; therapeutic) was “modestly but significantly reduced” and the “total IgE, IgG1” value ([3]; therapeutic) was “did not reduce”. For the same molecule, the allergic diarrhea [4] was “suppresses”.
